Reference: patent publication US20200289563A1 (WUXI BIOLOGICS IRELAND, published 2020)

T1: human CD19 (human, UniProt P15391 20-556)
T1 sequence (looked up): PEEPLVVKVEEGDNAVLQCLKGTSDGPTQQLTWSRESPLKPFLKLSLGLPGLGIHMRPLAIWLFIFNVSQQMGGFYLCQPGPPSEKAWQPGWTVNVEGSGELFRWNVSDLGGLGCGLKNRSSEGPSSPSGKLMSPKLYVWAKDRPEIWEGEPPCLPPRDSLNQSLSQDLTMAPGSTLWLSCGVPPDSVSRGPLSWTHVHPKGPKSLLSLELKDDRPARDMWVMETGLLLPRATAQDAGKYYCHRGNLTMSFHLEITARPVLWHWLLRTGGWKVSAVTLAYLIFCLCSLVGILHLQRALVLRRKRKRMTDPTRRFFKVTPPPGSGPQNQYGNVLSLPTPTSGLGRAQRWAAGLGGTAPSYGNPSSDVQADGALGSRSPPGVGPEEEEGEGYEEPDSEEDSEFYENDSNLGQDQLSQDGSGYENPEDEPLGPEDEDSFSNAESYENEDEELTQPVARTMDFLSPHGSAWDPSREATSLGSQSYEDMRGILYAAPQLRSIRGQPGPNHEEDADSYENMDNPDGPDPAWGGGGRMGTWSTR

T2: cynomolgus monkey CD19 (cynomolgus monkey, UniProt A0A2K5W8L9 20-557)
T2 construct: whole, on cells; also called cyno CD19; cPro1
T2 sequence: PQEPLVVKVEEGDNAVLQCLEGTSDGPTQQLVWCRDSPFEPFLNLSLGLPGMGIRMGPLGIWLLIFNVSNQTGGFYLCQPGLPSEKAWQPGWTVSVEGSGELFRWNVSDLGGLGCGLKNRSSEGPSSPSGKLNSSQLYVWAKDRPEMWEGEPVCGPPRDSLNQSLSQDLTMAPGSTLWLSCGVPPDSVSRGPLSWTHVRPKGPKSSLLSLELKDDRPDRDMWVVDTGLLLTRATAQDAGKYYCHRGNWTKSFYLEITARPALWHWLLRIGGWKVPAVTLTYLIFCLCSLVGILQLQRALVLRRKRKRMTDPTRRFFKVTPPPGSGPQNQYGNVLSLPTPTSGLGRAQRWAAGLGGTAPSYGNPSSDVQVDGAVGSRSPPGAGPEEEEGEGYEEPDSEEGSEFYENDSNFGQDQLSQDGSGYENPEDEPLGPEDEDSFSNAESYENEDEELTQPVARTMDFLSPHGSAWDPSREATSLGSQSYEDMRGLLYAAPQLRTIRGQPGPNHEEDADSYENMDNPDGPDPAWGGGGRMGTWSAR


How the values were obtained:
human CD19 [1] = biological target: T1, human CD19; test: cell-based or functional assay
human CD19 [2] = biological target: T1, human CD19; test: flow cytometry on Ramos cells
Experimental: (§1) The Ramos cells were plated in 96-well U-bottom plates (BD) at a density of 1×10⁵ cells/well. The purified antibody were serially diluted in the staining buffer (1×PBS/1% BSA) and incubated with cells for 1 hr at 4° C. The cells were then washed twice with staining buffer (BSA/1×PBS). […] The cells were then washed twice and re-suspended in 100 μL staining buffer. The fluorescence intensity was measured by flow cytometry (BD Canto II) and analyzed by FlowJo.
Binding activity of the selected subclones were tested on Ramos cell by flow cytometry (FIG. 4).

cynomolgus monkey CD19 = biological target: T2, cynomolgus monkey CD19; test: flow cytometry on cynomolgus CD19 transfected CHO-K1 cells
Experimental: as §1, with “cynomolgus CD19 transfected CHO-K1” for “Ramos”
The binding activity to cynomogus monkey CD19 of candidate antibodies was evaluated using cynomolgus monkey CD19 transfected CHO-K1 cell line (FIG. 5).

human CD19 [3] = biological target: T1, human CD19; test: flow cytometry on CD19 transfected CHO-K1 cells, Scatchard analysis
Experimental: The CD19 transfected CHO-K1 cells or Ramos cells were plated in a 96-well plates (BD) at a density of 5×10⁴ cells/well. Antibodies to be tested were serially diluted in the staining buffer (1×PBS/1% BSA) and incubated with cells at 4° C. for 1 hr.
The affinity of selected candidate antibodies were tested on CD19 transfected CHO-K1 cell by flow cytometry.

EC50 (human CD19 [2]) [nM] | EC50 (cynomolgus monkey CD19) [nM] | Kd (human CD19 [3]) [nM] | Binder | EC50 of cell viability, Fab-Zap assay on Ramos cells (internalization) (human CD19 [1]) [nM]
0.17 | 0.438 | 0.213 | WBP7011-4.100.1 (antibody, V domains shown, also called W7011-4.100.1) VH: EVQLQQSGPELVKPGASVKMSCKASGYTFTSYVIHWVKQKPGQGLEWIGYINPYNDGAEYTEKFKGKATLTSDKSSSTAYMELSSLTSEDSTVYYCARGPYYYGGSPFDYWGQGTTLTVSS VL: DAVMTQTPLSLPVSLGDQASISCRSSQSLENSNGNTYLNWYLQKPGQSPQLLIYRVSNRFSGVLDRFSGSGSGTDFTLKISRVEAEDLGVYFCLQVTHVPYTFGGGTKLEIK | 0.0148
0.07 | – | – | WBP7011_4.191.6 (antibody, mouse IgG1, V domains shown, Mouse monoclonal from hybridoma; isotype printed only for the sister subclone 4.191.3 (mouse IgG1, kappa); also called W7011-4.191.6) VH: EVQLLQSGPELVKPGASVKMSCKASGYTFTDYVIHWVKQRPGQGLEWIGYINPYNDGSEYSEKFKGKATLTSDKSSSTAYMELSSLTSEDSAVYYCARGPYYYGGSPFDYWGQGTTLTVSS VL: DAVMTQTPLSLPVSLGDQASISCRSSQSLENSNGNTYLNWYLQKPGQSPQLLIYRVSNRFSGVLDRFSGSGSGTDFTLKISRVEAEDLGVYFCLQVTHVPYTFGGGTKLEIK | 0.0191
0.15 | 0.996 | 0.42 | WBP7011_4.194.10 (antibody, V domains shown, also called W7011-4.194.10) VH: EVQLQQSGPELVKPGASVKMSCKASGYTFTSYVMHWVKQKPGQGLEWIGYINPYNDGTKYNEKFKGKATLTSDKSSSTAYMELSSLTSEDSAVYYCARGPYYYGSSPFDYWGQGTTLTVSS VL: DAVMTQTPLSLPVSLGDQASISCRSSQTLENSNGNTYLNWYLQKPGQSPQLLIYRVSNRFSGVLDRFSGSGSGTDFTLKISRVETEDLGVYFCLQVTHVPYTFGGGTKLEIK | 0.0117
0.23 | 0.496 | 0.231 | WBP7011-4.106.3 (antibody, V domains shown, also called W7011-4.106.3) VH: EVQLQQSGPELVKPGASVKMSCKASGYTFSSYVIHWVKQKPGQGLEWIGYINPYNDGAEYAEKFKGKATLTSDKSSSSAYMELGSLTSEDSAVYYCARGPYYYGGSPFDYWGQGTTLTVSS VL: DAVMTQTPLSLPVSLGDQASISCRSSQSLENSNGNTYLNWYLQKPGQSPQLLIYRVSNRFSGVLDRFSGSGSGTDFTLKISRVEAEDLGVYFCLQVTHVPYTFGGGTKLEIK | 0.0136
0.19 | 0.863 | 0.252 | WBP7011_4.108.3 (antibody, V domains shown, also called W7011-4.108.3) VH: EVQLQQSGPELVKPGASVEMSCKASGYTFTSYVIHWLKQKPGQGLEWIGYINPYNDGAEYNEKFKGKATLTSDKSSSTAYMDLNSLTSEDSAVYYCARGPYYYGSSPFDYWGQGTTLTVSS VL: DAVMTQTPLSLPVSLGDQASISCRSSQSLENSNGNTYLNWYLQKPGQSPQLLIYRVSNRFSGVLDRFSGSGSGTDFTLKISRVEAEDLGVYFCLQVTHVPYTFGGGTKLEIK | 0.0206
0.23 | 0.443 | 0.181 | WBP7011-4.34.11 (antibody, V domains shown) VH: EVQLQQSGPELVKPGASVKMSCKASGYTFTNYVIHWVKQKPGQGLEWIGYFNPYNDGTEYNEKFKAKATLTSDKSSSTAYMELSSLTSEDSAVYYCAKGPYYYGSSPFDYWGQGTTLTVSS VL: DAVMTQTPLSLPVSLGDQASISCRSSQSLENSNGNTYLNWYLQKPGQSPQLLIYRVSNRFSGVLDRFSGSGSGTDFTLKISRVEAEDLGVYFCLQVTHVPYTFGGGTKLEIK | 0.007
0.12 | 0.628 | 0.17 | WBP7011_4.231.5 (antibody, V domains shown, also called W7011-4.231.5) VH: EVQLQQSGPELVKPGASVKMSCKASGYTFTSYVMHWVKQKPGQGLEWIGYINPYNDGTQYNEKFKGKATLTSDKSSSTAYMELSSLTSEDSAVYYCARGPYYYSPSPFDYWGQGTTLTVSS VL: DAVMTQTPLSLPVSLGDQASISCRSSQSLENSNGNTYLNWYLQKPGQSPQLLIYRVSNRFSGVLDRFSGSGSGTDFTLKISRVEAEDLGVYFCLQVTHVPYTFGGGTKLEIK | 0.0085
0.1 | 0.438 | 0.118 | WBP7011_4.56.1 (antibody, V domains shown, also called W7011-4.56.1) VH: EVQLQQSGPELVKPGASVKMSCKASGYTFTNYVIHWVKQKPGQGLEWIGYINPYNDGTEYNEKFKGKATLTSDTSSSTAYMALSSLTSEDSAVYYCTRGPYYYGGSPFDYWGQGTTLTVSS VL: DAVMTQTPLSLPVSLGDQASISCRSSQSLENSNGNTYLNWYLQKPGQSPQLLIYRVSNRFSGVLDRFSGSGSGTDFTLKISRVEAEDLGVYFCLQVTHVPYTFGGGTKLEIK | 0.0084
0.31 | 0.46 | 0.17 | WBP7011-4.15.10 (antibody, V domains shown, also called W7011-4.15.10) VH: EVQLQQSGPELVKPGASVKMSCKASGYTFTSYVMHWMKQKPGQGLEWIGYINPYNDGTEYHEKFKGKATLTSDKSSSTAYMELSSLTSEDSAVFYCARGPYYYGGSPFDFWGQGTTLTVSS VL: DAVMTQTPLSLPVSLGDQASISCRSSQSLENSNGNTYLNWYLQKPGQSPQLLIYRVSNRFSGVLDRFSGSGSGTDFTLKISRVEAEDLGVYFCLQVTHVPYTFGGGTKLEIK | 0.0139
0.85 | 1.54 | 0.949 | WBP7011_4.155.8 (antibody, V domains shown) VH: EIQLQQSGPELVKPGASVKVSCKASGYAFTSYNMYWVKQSHGKSLEWIGYIDPYNGDTTYNQKFKGKATLTVDKSSSTAYMHLNSLTSEDSAVYYCLTTAYAMDYWGQGTSVTVSS VL: QIVLTQSPAIMSASLGEEITLTCSASSTVNYMHWYQQKSGTSPKLLIYSTSNLASGVPSRFSGSGSGTFYSLTIRSVEAEDAADYYCHQWSSYPYTFGGGTKLEIK | 0.0276
0.45 | 1.77 | 0.735 | WBP7011_4.225.7 (antibody, mouse IgG2a, V domains shown, also called W7011-4.225.7) VH: EIQLQQSGPELVKPGASVKVSCKASGYAFTSYNMYWVKQSHGKSLEWIGYIDPYNGDTTYNQKFKGKATLTVDKSSSTAYMHLNSLTSEDSAVYYCLTTAYAMDYWGQGTSVTVSS VL: QIVLTQSPAIMSASLGEEITLTCSASSTVNYMHWYQQKSGTSPKLLIYSTSNLASGVPSRFSGSGSGTFYSLTIRSVEAEDAADYYCHQWSSYPYTFGGGTKLEIK | 0.015
0.64 | 2.3 | 0.847 | WBP7011_4.202.9 (antibody, mouse IgG2a, V domains shown, also called W7011-4.202.9) VH: EIQLQQSGPELVKPGASVKVSCKASGYAFTSYNMYWVKQSHGKSLEWIGYIDPYNGDTTYNQKFKGKATLTVDKSSSTAYMHLNSLTSEDSAVYYCLTTAYAMDYWGQGTSVTVSS VL: QIVLTQSPAIMSASLGEEITLTCSASSTVNYMHWYQQKSGTSPKLLIYSTSNLASGVPSRFSGSGSGTFYSLTIRSVEAEDAADYYCHQWSSYPYTFGGGTKLEIK | 0.0236
